Source: the supplement of paper PMC12042874
± gives the uncertainty stated by the source.

Assay: amyloid nucleation score (Sup35N fusion, yeast selection) (log enrichment); library NNK3; higher = more nucleation; inactive = no reads after selection
In short: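 Nucleation score: DiMSum log enrichment of output over input reads, centred on the mode score of non-aggregating sequences. Only sequences with at least 100 input reads were kept. Reads came from Illumina sequencing of plasmid inserts before and after 7 days of growth at 30°C without adenine and uracil, in psi-negative yeast expressing Sup35N fused to peptides of 20 random codons after 24 hours of induction with 100 μM copper sulfate.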

Amyloid nucleation score, -0.462 ± 1.4:
FNSYGKLWYFESKDRVYACD

Amyloid nucleation score, 0.398 ± 0.3:
FHWYFLCLAFLG

Amyloid nucleation score, 0.018 ± 0.45:
FPDIDLLLLWTHQRDRRSWF

Amyloid nucleation score, 1.35 ± 0.092:
FIWTFK

Amyloid nucleation score, 0.13 ± 0.45:
FMNCWQRAGVRSLGVYGNSA

Amyloid nucleation score, 1.85 ± 0.1:
FMTVQLLH, FNFNILTIWIDLLAQLGMT

Amyloid nucleation score, -0.709 ± 0.41:
FGRYPMYIASLITNSKVFGC

Amyloid nucleation score, 1.85 ± 0.098:
FLIPQGERSVLCMGCYFLYA

Amyloid nucleation score, 0.798 ± 0.21:
FEERHCGANWFGSYVIGRWR

Amyloid nucleation score, 1.61 ± 0.089:
FELTVLSSMVAIFL

Amyloid nucleation score, inactive:
FCRSVLTLKKKLMFYTLRHC, FCSVIFLISIYCTRFSLVYD, FDACRFHVHLRYLFNNRYMG, FDAFM, FDDATEKFIS, FDFASFGKWVVVRFKCKTFT, FDFTGYLKCLKCTSSCTMVL, FDHPFICIKPRATRREAWLT, FDLETSLL, FDLVNWYFQRNIVLRQSCCY, FDMTL, FDPYFVFHNWVLYWFRVFTF, FDSKVWSAQRVRSTRLLSLG, FDTWFLRFRTNDVYLKVFFY, FDVKDWPSNNWRSLGNSRVC, FDVRDRSRIGLSMTITWMKI, FDYSIGL, FEFYTMWSIWARVLFPLKIY, FENSLFYTKVMDPCSFVWYW, FESSGAGRFRSIWYGYMRVF, FEVIFYSGYAYLACPRRQCH, FFFVDMYWSDCLKDLLL, FFKICFRAKYIGNLSPLLK, FFLAGLFCAISV, FFLNLKDMFDHAL, FFLYLSKRLCVFCRCTYLGL, FFNKREKDVFSNHRQYGYWN, FFPFPKFWAGIVIAFY, FFRRSRYEYKSFGVNNVMNG, FFSAPMNEVKTGTILKGFVC, FFSASQRVAY, FFVIRLNPTSLNCVFSWYLL, FFVVC, FFWECYRQINCSINW, FGAAFQNYVKFPVPKMFTCH, FGADSDQHLRRLLGAEGWCR, FGANHKQVSWWDRMLSGTVR, FGEFKDCQGFSKF, FGEYVIRMSNCTLPKIMVIP, FGFFWP, FGQYWKRCTTCLCGWPTGIG, FGSGRVSQLVRYDSFLEEFL, FGSPYWLAYIV, FGTDDEDVKCNVMTALCRIW, FGTLSQVHIH, FGTSSEF, FGVCSLFESCIVSFNIVRRL, FGVQVWLMLFLGNVYIWMVM, FGVVDYARRSWGYGSCGGHV, FHIGLSITVT, FHLYNVW, FICILIISKGSIVPFFLRHR, FILRLVEVSNFCTRYRNAYS, FILSAGSLHQLGRLVES, FIRARLLRHHTLARNAYVLR, FISDRGGLVRMNYPPRHW, FISGVYMKCIGCSS, FISINTPPCLCMS, FITTCRILWVRCTGIVNDFL, FIYAC, FKAMLD, FKIEDQYNLMHRVFLVSNGG, FKIMD, FKKSLYVLSDFSVLYSMCSW, FKSLHTGVQRNTLCARSRTF, FKVAH, FKVNGFSATILIFKQV, FLERISFYIKLVSRSYGGTS, FLFFTEAGYM, FLFWILDALLLQVFQLSPHK, FLHPLSLDSNFLNSVCHFKK, FLIIDAVLEPVGLLFFTKFS, FLLFFAKWCLY, FLLNQIIGQLKHHLFVVSVN, FLMRCISLGGTGANFLLELS, FLPQFDYVQIMVPCYCLEVV, FLRFSAVDVSNGGNSMLL, FLVGPPNL, FLYRDSSCRLSLM, FLYYIPWDYL, FMFLVFDC, FMGTGHSFGSQNPVSLILKS, FMGVT, FMHPADVEHGTREYLNVTGG, FMKILQVTDWDPGSVYNSSN, FMNKLGDFNLP, FMSFLICNRILWSGG, FMYILWRVSKKLFIALMWFR, FNGRLVLHHRTVI, FNHPNQGVCIHCISGKGWTR, FNLGRVMFLRSLRWCQGLLV, FNQAHSVTTDREAYRGRCQG, FNTIAIDTSLVGSNYAGATK, FNVFLSLATGISDGYYMLTA, FPGNLSLNGVIHMFLYDKLW, FPRHCKPRCL, FQGSNCP

Amyloid nucleation score, -0.943 ± 1.3:
FKWQEW

Amyloid nucleation score, 0.346 ± 0.2:
FCSFEVRGCY

Amyloid nucleation score, 0.708 ± 0.27:
FIMMRIMSFPISHVCV

Amyloid nucleation score, -0.359 ± 0.32:
FICERMRRIVESNVDLLGFY

Amyloid nucleation score, 1.03 ± 0.12:
FCVPKCYSHWYLVFS

Amyloid nucleation score, 1.84 ± 0.11:
FLTHVHQINADAFYAIL

Amyloid nucleation score, 0.881 ± 0.19:
FFVSDKLVFSNTLLQKNKSP

Amyloid nucleation score, 0.724 ± 0.18:
FLLCHYCFFVDTPGRIFYYS

Amyloid nucleation score, 1.66 ± 0.08:
FLMKLWM

Amyloid nucleation score, -0.241 ± 0.8:
FIGQGTNWYPYSVGANVSHH

Amyloid nucleation score, 0.537 ± 0.47:
FCRLWVRVSSDTFYYSFSGN
